# Laboratory results from patent publication US20020127721A1.
# How the values were obtained:
# [1] = target: human coxsackievirus and adenovirus receptor (CAR) (human) (UniProt P78310); assay: cell-based or functional assay
# [2] = target: human coxsackievirus and adenovirus receptor (CAR) (human) (UniProt P78310); assay: flow cytometry, RmcB staining of CHO cells after Ad5CMVhCAR:CaPi gene transfer
# [3] = target: human coxsackievirus and adenovirus receptor (CAR) (human) (UniProt P78310); assay: flow cytometry, RmcB staining of 3T3 cells after Ad5CMVhCAR:CaPi gene transfer
# Sequence of UniProt P78310 (P78310 20-365): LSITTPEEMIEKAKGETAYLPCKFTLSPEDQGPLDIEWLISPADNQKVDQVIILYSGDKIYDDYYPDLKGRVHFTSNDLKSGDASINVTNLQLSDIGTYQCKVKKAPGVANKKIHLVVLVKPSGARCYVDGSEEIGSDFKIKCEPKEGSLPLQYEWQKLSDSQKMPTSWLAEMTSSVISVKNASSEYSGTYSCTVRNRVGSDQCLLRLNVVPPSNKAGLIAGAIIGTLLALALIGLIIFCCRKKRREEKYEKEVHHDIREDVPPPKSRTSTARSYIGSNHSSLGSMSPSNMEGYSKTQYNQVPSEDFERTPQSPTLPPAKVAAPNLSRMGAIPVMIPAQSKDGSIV
substance,measurement,setting,value
"Ad5 fiber (endogenous, non-recombinant fiber of the control virus Ad5RSVeGFP) (from UniProt P11818 1-581)",infection of 3T3 cells after CAR gene transfer (% eGFP-positive by FACS; 3% without CAR),[1],21%
same,infection of CHO cells after CAR gene transfer (% eGFP-positive by FACS; 0% without CAR),[1],57%
monoclonal antibodies (mAbs) against CAR (RmcB) (antibody),percent of cells positive for CAR,[2],96%
same,percent of cells positive for CAR,[3],92%
